# Biological target: Ribonuclease A (Type II-A) from bovine pancreas (bovine) (UniProt P61823)
# Assay: cell-based or functional assay
# Ribonuclease A (Type II-A) from bovine pancreas (bovine), sequence (P61823 27-150): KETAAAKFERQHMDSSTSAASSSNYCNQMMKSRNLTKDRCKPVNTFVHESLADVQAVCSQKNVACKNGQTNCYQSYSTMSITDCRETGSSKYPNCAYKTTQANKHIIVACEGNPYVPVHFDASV
"IC50 for RNase A activity inhibition, HeLa total RNA cleavage, agarose gel image","inhibition level, RNA probe assay (fluorophore and quencher), inhibitor at 1 µM",Substance
257 nM,35.8%,Biofact RNase inhibitor
381 nM,27.2%,RNaseOUT recombinant ribonuclease inhibitor

# Source: patent US20260217863A1, “ANTIBODY OR PEPTIDE BINDING SPECIFICALLY TO RNASE A, IMMUNOASSAY DEVICE AND METHOD FOR DETECTING RNASE A, AND METHOD FOR COLLECTING RNASE A” (UIF (University Industry Foundation), Yonsei University, priority 2022, published 2026)
